Reference: paper PMC3395618

What follows are molecules tested against HLA-Cw*0102 (human (endogenous in T2)).

Molecule | HLA-Cw*0102 expression on peptide-pulsed T2 cells (antibody DT9, flow cytometry) as compared to non-peptide pulsed T2 cells [fold]
p24 Gag162-171 (from UniProt P04591 162-171) (peptide) | > 5
p24 Gag176-185 (from UniProt P04591 176-185) (peptide) | > 5
p24 Gag164-173 (from UniProt P04591 164-173) (peptide) | > 5
p24 Gag146-155 (from UniProt P04591 146-155) (peptide) | > 5
p24 Gag177-186 (from UniProt P04591 177-186) (peptide) | > 5
SDIAGTTSTL [p24 Gag234-243 (…)] | > 5
VIPMFSALSE [p24 Gag168-177 (…)] | > 5
AAEWDRLHPV [p24 Gag209-218 (…)] | > 5
LKALGPAATL [p24 Gag334-343 (…)] | > 5
